Experiments:
Experiment in all cases: Adhesion of radioactively labeled bacteria to treated hydroxyapatite (HA)
Type in all cases: cell-based
[1] = tested on: Actinomyces viscosus; settings: HA treated with the protein/peptide, saliva-treated HA = 100%
Method: (§1) PRP-1 and PRP-1(Tl) were investigated for their abilities to promote adhesion of bacteria to HA. Essentially, the method is to treat HA samples with nothing (negative control), saliva (positive control), or the respective proteins or peptides. The excess agent is removed by washing, and suspensions of radioactively labeled bacteria are added to the treated HA. After a suitable time, the excess bacteria are removed by washing and those remaining adsorbed to the HA are counted in a scintillation counter. In the table of results, bacterial adsorption to saliva-treated HA is considered to be 100%, and adsorption to PRP-1 or PRP-1(Tl)-treated HA expressed as a percentage of this reference value. This approach is necessary because of the diverse behaviors of different bacteria.

[2] = tested on: Streptococcus mitis; settings: HA treated with the protein/peptide, saliva-treated HA = 100%
Method: as §1

[3] = tested on: Streptococcus sanguis
Method: as §1

[4] = tested on: Bacteroides gingivalis
Method: as §1

[5] = tested on: Streptococcus mutans; settings: HA treated with the protein/peptide, saliva-treated HA = 100%
Method: as §1

B1: PRP-1: acidic proline-rich phosphoprotein derived from human saliva, 150 residues; sequence shown in the diagram (protein, UniProt P02810 17-166, looked up)
Salivary acidic proline-rich …: QDLDEDVSQEDVPLVISDGGDSEQFIDEERQGPPLGGQQSQPSAGDGNQNDGPQQGPPQQGGQQQQGPPPPQGKPQGPPQQGGHPPPPQGRPQGPPQQGGHPRPPRGRPQGPPQQGGHQQGPPPPPPGKPQGPPPQGGRPQGPPQGQSPQ
[1]
  PERCENT ADHESION COMPARED TO SALIVA-TREATED HA: 105%
[2]
  PERCENT ADHESION COMPARED TO SALIVA-TREATED HA: 38%
[3]; S. sanguis, versus saliva-treated HA
  adhesion of organism to treated HA (in words): higher than adhesion to saliva-treated HA
[3]; Streptococcus sanguis, HA treated with the protein/peptide, saliva-treated HA = 100%
  PERCENT ADHESION COMPARED TO SALIVA-TREATED HA: 144%
[4]; B. gingivalis, versus saliva-treated HA
  adhesion of organism to treated HA (in words): higher than adhesion to saliva-treated HA
[4]; Bacteroides gingivalis, HA treated with the protein/peptide, saliva-treated HA = 100%
  PERCENT ADHESION COMPARED TO SALIVA-TREATED HA: 335%
[5]
  PERCENT ADHESION COMPARED TO SALIVA-TREATED HA: 81%

— US5013542A, “Method to inhibit adhesion of disease-causing microorganisms to teeth” (Forsyth Dental Infirmary for Children, priority 1988, dated 1991)
